# Experimental data taken from paper PMC11574045, “A cofactor-induced repressive type of transcription factor condensation can be induced by synthetic peptides to suppress tumorigenesis” (The EMBO Journal, 2024).
# Tested on: HEK293FT cells transfected with TF library
# Experiment: Screening of TF condensates based on fluorescent puncta
# Type: cell-based
# Conditions: Figure 1B numerical data; TF library screen, one value per transcriptional factor
# Outline: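 HEK293FT cells were reverse-transfected with Flag- or GAL4-tagged TF plasmids (1.6 μg/ml, PEI). After 60 h, cells were cultured 12 h with or without glucose, then fixed and immunostained with anti-Flag or anti-GAL4 and Alexa 488 secondaries. Fluorescent puncta were imaged over fifty random fields per well by high-content imaging.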
row,Molecule,Z score of condensed fraction
1,"FOSL1 (protein, UniProt P15407 1-271, looked up) Fos-related antigen 1: MFRDFGEPGPSSGNGGGYGGPAQPPAAAQAAQQKFHLVPSINTMSGSQELQWMVQPHFLGPSSYPRPLTYPQYSPPQPRPGVIRALGPPPGVRRRPCEQISPEEEERRRVRRERNKLAAAKCRNRRKELTDFLQAETDKLEDEKSGLQREIEELQKQKERLELVLEAHRPICKIPEGAKEGDTGSTSGTSSPPAPCRPVPCISLSPGPVLEPEALHTPTLMTTPSLTPFTPSLVFTYPSTPEPCASAHRKSSSSSGDPSSDPLGSPTLLAL",-0.3444
2,"FLI1 (protein, UniProt Q01543 1-452, looked up) Friend leukemia integration 1 …: MDGTIKEALSVVSDDQSLFDSAYGAAAHLPKADMTASGSPDYGQPHKINPLPPQQEWINQPVRVNVKREYDHMNGSRESPVDCSVSKCSKLVGGGESNPMNYNSYMDEKNGPPPPNMTTNERRVIVPADPTLWTQEHVRQWLEWAIKEYSLMEIDTSFFQNMDGKELCKMNKEDFLRATTLYNTEVLLSHLSYLRESSLLAYNTTSHTDQSSRLSVKEDPSYDSVRRGAWGNNMNSGLNKSPPLGGAQTISKNTEQRPQPDPYQILGPTSSRLANPGSGQIQLWQFLLELLSDSANASCITWEGTNGEFKMTDPDEVARRWGERKSKPNMNYDKLSRALRYYYDKNIMTKVHGKRYAYKFDFHGIAQALQPHPTESSMYKYPSDISYMPSYHAHQQKVNFVPPHPSSMPVTSSSFFGAASQYWTSPTGGIYPNPNVPRHPNTHVPSHLGSYY",0.3939
3,"FOXA1 (protein, UniProt P55317 1-472, looked up) Hepatocyte nuclear factor …: MLGTVKMEGHETSDWNSYYADTQEAYSSVPVSNMNSGLGSMNSMNTYMTMNTMTTSGNMTPASFNMSYANPGLGAGLSPGAVAGMPGGSAGAMNSMTAAGVTAMGTALSPSGMGAMGAQQAASMNGLGPYAAAMNPCMSPMAYAPSNLGRSRAGGGGDAKTFKRSYPHAKPPYSYISLITMAIQQAPSKMLTLSEIYQWIMDLFPYYRQNQQRWQNSIRHSLSFNDCFVKVARSPDKPGKGSYWTLHPDSGNMFENGCYLRRQKRFKCEKQPGAGGGGGSGSGGSGAKGGPESRKDPSGASNPSADSPLHRGVHGKTGQLEGAPAPGPAASPQTLDHSGATATGGASELKTPASSTAPPISSGPGALASVPASHPAHGLAPHESQLHLKGDPHYSFNHPFSINNLMSSSEQQHKLDFKAYEQALQYSPYGSTLPASLPLGSASVTTRSPIEPSALEPAYYQGVYSRPVLNTS",-0.3489
4,"FHL2 (protein, UniProt Q14192 1-279, looked up) Four and a half LIM domains …: MTERFDCHHCNESLFGKKYILREESPYCVVCFETLFANTCEECGKPIGCDCKDLSYKDRHWHEACFHCSQCRNSLVDKPFAAKEDQLLCTDCYSNEYSSKCQECKKTIMPGTRKMEYKGSSWHETCFICHRCQQPIGTKSFIPKDNQNFCVPCYEKQHAMQCVQCKKPITTGGVTYREQPWHKECFVCTACRKQLSGQRFTARDDFAYCLNCFCDLYAKKCAGCTNPISGLGGTKYISFEERQWHNDCFNCKKCSLSLVGRGFLTERDDILCPDCGKDI",0.8678
5,"FERD3L (protein, UniProt Q96RJ6 1-166, looked up) Fer3-like protein: MAAYPESCVDTTVLDFVADLSLASPRRPLLCDFAPGVSLGDPALALREGRPRRMARFEEGDPEEEECEVDQGDGEEEEEEERGRGVSLLGRPKRKRVITYAQRQAANIRERKRMFNLNEAFDQLRRKVPTFAYEKRLSRIETLRLAIVYISFMTELLESCEKKESG",0.6489
6,"FOSL2 (protein, UniProt P15408 1-326, looked up) Fos-related antigen 2: MYQDYPGNFDTSSRGSSGSPAHAESYSSGGGGQQKFRVDMPGSGSAFIPTINAITTSQDLQWMVQPTVITSMSNPYPRSHPYSPLPGLASVPGHMALPRPGVIKTIGTTVGRRRRDEQLSPEEEEKRRIRRERNKLAAAKCRNRRRELTEKLQAETEELEEEKSGLQKEIAELQKEKEKLEFMLVAHGPVCKISPEERRSPPAPGLQPMRSGGGSVGAVVVKQEPLEEDSPSSSSAGLDKAQRSVIKPISIAGGFYGEEPLHTPIVVTSTPAVTPGTSNLVFTYPSVLEQESPASPSESCSKAHRRSSSSGDQSSDSLNSPTLLAL",-0.8108
7,"AFF3 (protein, UniProt P51826 1-1226, looked up) AF4/FMR2 family member 3: MDSFDLALLQEWDLESLCVYEPDRNALRRKERERRNQETQQDDGTFNSSYSLFSEPYKTNKGDELSNRIQNTLGNYDEMKDFLTDRSNQSHLVGVPKPGVPQTPVNKIDEHFVADSRAQNQPSSICSTTTSTPAAVPVQQSKRGTMGWQKAGHPPSDGQQRATQQGSLRTLLGDGVGRQQPRAKQVCNVEVGLQTQERPPAMAAKHSSSGHCVQNFPPSLASKPSLVQQKPTAYVRPMDGQDQAPDESPKLKSSSETSVHCTSYRGVPASKPEPARAKAKLSKFSIPKQGEESRSGETNSCVEEIIREMTWLPPLSAIQAPGKVEPTKFPFPNKDSQLVSSGHNNPKKGDAEPESPDNGTSNTSMLEDDLKLSSDEEENEQQAAQRTALRALSDSAVVQQPNCRTSVPSSKGSSSSSSSGSSSSSSDSESSSGSDSETESSSSESEGSKPPHFSSPEAEPASSNKWQLDKWLNKVNPHKPPILIQNESHGSESNQYYNPVKEDVQDCGKVPDVCQPSLREKEIKSTCKEEQRPRTANKAPGSKGVKQKSPPAAVAVAVSAAAPPPAVPCAPAENAPAPARRSAGKKPTRRTERTSAGDGANCHRPEEPAAADALGTSVVVPPEPTKTRPCGNNRASHRKELRSSVTCEKRRTRGLSRIVPKSKEFIETESSSSSSSSDSDLESEQEEYPLSKAQTVAASASSGNDQRLKEAAANGGSGPRAPVGSINARTTSDIAKELEEQFYTLVPFGRNELLSPLKDSDEIRSLWVKIDLTLLSRIPEHLPQEPGVLSAPATKDSESAPPSHTSDTPAEKALPKSKRKRKCDNEDDYREIKKSQGEKDSSSRLATSTSNTLSANHCNMNINSVAIPINKNEKMLRSPISPLSDASKHKYTSEDLTSSSRPNGNSLFTSASSSKKPKADSQLQPHGGDLTKAAHNNSENIPLHKSRPQTKPWSPGSNGHRDCKRQKLVFDDMPRSADYFMQEAKRMKHKADAMVEKFGKALNYAEAALSFIECGNAMEQGPMESKSPYTMYSETVELIRYAMRLKTHSGPNATPEDKQLAALCYRCLALLYWRMFRLKRDHAVKYSKALIDYFKNSSKAAQAPSPWGASGKSTGTPSPMSPNPSPASSVGSQGSLSNASALSPSTIVSIPQRIHQMAANHVSITNSILHSYDYWEMADNLAKENREFFNDLDLLMGPVTLHSSMEHLVQYSQQGLHWLRNSAHLS",-0.8104
8,"FOXA3 (protein, UniProt P55318 1-350, looked up) Hepatocyte nuclear factor …: MLGSVKMEAHDLAEWSYYPEAGEVYSPVTPVPTMAPLNSYMTLNPLSSPYPPGGLPASPLPSGPLAPPAPAAPLGPTFPGLGVSGGSSSSGYGAPGPGLVHGKEMPKGYRRPLAHAKPPYSYISLITMAIQQAPGKMLTLSEIYQWIMDLFPYYRENQQRWQNSIRHSLSFNDCFVKVARSPDKPGKGSYWALHPSSGNMFENGCYLRRQKRFKLEEKVKKGGSGAATTTRNGTGSAASTTTPAATVTSPPQPPPPAPEPEAQGGEDVGALDCGSPASSTPYFTGLELPGELKLDAPYNFNHPFSINNLMSEQTPAPPKLDVGFGGYGAEGGEPGVYYQGLYSRSLLNAS",0.4813
9,"FOSB (protein, UniProt P53539 1-338, looked up) Protein FosB: MFQAFPGDYDSGSRCSSSPSAESQYLSSVDSFGSPPTAAASQECAGLGEMPGSFVPTVTAITTSQDLQWLVQPTLISSMAQSQGQPLASQPPVVDPYDMPGTSYSTPGMSGYSSGGASGSGGPSTSGTTSGPGPARPARARPRRPREETLTPEEEEKRRVRRERNKLAAAKCRNRRRELTDRLQAETDQLEEEKAELESEIAELQKEKERLEFVLVAHKPGCKIPYEEGPGPGPLAEVRDLPGSAPAKEDGFSWLLPPPPPPPLPFQTSQDAPPNLTASLFTHSEVQVLGDPFPVVNPSYTSSFVLTCPEVSAFAGAQRTSGSDQPSDPLNSPSLLAL",1.202
